The results in this text go back to the RNAGym collection of RNA variant scans (doi:10.1093/molbev/msab373).

B1: Azoarcus group I ribozyme (parent)
chain: GUGCCUUGCGCCGGGAAACCACGCAAGGGAUGGUGUCAAAUUCGGCGAAACCUAAGCGCCCGCCCGGGCGUAUGGCAACGCCGAGCCAAGCUUCGGCGCCUGCGCCGAUGAAGGUGUAGAGACUAGACGGCACCCACCUAAGGCAAACGCUAUGGUGAAGGCAUAGUCCAGGGAGUGGCGAAAGUCACACAAACCGG

In this data set the parent is B1. Put plainly: reverse-splicing fitness (ratio to wild type); higher = more active; in vitro selection; Mg2+ level not given. An outline of the steps: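 An in vitro group I ribozyme library with randomized positions was T7-transcribed and gel-purified. In triplicate, 10 pmol RNA in EPPS pH 7.5 was reacted with 50 pmoles of a 30-nt RNA substrate for 1 h at 37 °C across several added MgCl2 levels (1–48 mM), then stopped with EDTA. Products were reverse transcribed from a substrate-complementary primer, PCR-amplified and sequenced (HiSeq 4000). Fitness is a variant's read proportion after selection over that before, normalised to wild type.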
GUGCCUUGCGCCGGGAAACCACGCAAGGGAUGGUGUCAAAUUCGGCGAAACCUAAGCGCCCGCCCGGGCGUAUGGCAACGCAGAGCCAAGCUUCGGCGCCUGCGCCGAUGAAGGUGUAGAGACUAGACGGCACCCACCUAAGGCCAACGUUAUGGUGAAGGCAUAGUCUAGGGAGGGGCGAAAGUCACACAAACCGG [C82A A145C C150U C169U U176G]: the reverse-splicing fitness was found to be 0.00481. Take GUGCCUUGCGCCGGGAAACCACGCAAGGGAUGGUGUCAAAUUCGGCGAAACCUAAGCGCCCGCCCGGGCGUAUGGCAACGCAGAGCCAAGCUUCGGCGCCUGCGCCGAUGAAGGUGUAGAGACUAGACGGCACCCACCUAAGGCCAACGCUAUGGUGAAGGCAUAGUCGAGGGAGCGGCGAAAGUCACACAAACCGG [C82A A145C C169G U176C]: the reverse-splicing fitness is 0.0138. Take GUGCCUUGCGCCGGGAAACCACGCAAGGGAUGGUGUCAAAUUCGGCGAAACCUAAGCGCCCGCCCGGGCGUAUGGCAACGCAGAGCCAAGCUUCGGCGCCUGCGCCGAUGAAGGUGUAGAGACUAGACGGCACCCACCUAAGGCCAACGCUAUGGUGAAGGCAUAGUCGAGGGAGAGGCGAAAGUCACACAAACCGG [C82A A145C C169G U176A]: the reverse-splicing fitness was found to be 0.0247. As for GUGCCUUGCGCCGGGAAACCACGCAAGGGAUGGUGUCAAAUUCGGCGAAACCUAAGCGCCCGCCCGGGCGUAUGGCAACGCAGAGCCAAGCUUCGGCGCCUGCGCCGAUGAAGGUGUAGAGACUAGACGGCACCCACCUAAGGCCAACGUUAUGGUGAAGGCAUAGUCCAGGGAGAGGCGAAAGUCACACAAACCGG [C82A A145C C150U U176A], the figure is 0.101; as for GUGCCUUGCGCCGGGAAACCACGCAAGGGAUGGUGUCAAAUUCGGCGAAACCUAAGCGCCCGCCCGGGCGUAUGGCAACGCAGAGCCAAGCUUCGGCGCCUGCGCCGAUGAAGGUGUAGAGACUAGACGGCACCCACCUAAGGCCAACGUUAUGGUGAAGGCAUAGUCCAGGGAGGGGCGAAAGUCACACAAACCGG [C82A A145C C150U U176G], 0.0335.

Regarding GUGCCUUGCGCCGGGAAACCACGCAAGGGAUGGUGUCAAAUUCGGCGAAACCUAAGCGCCCGCCCGGGCGUAUGGCAACGCAGAGCCAAGCUUCGGCGCCUGCGCCGAUGAAGGUGUAGAGACUAGACGGCACCCACCUAAGGCCAACGUUAUGGUGAAGGCAUAGUCCAGGGAGCGGCGAAAGUCACACAAACCGG [C82A A145C C150U U176C], the reverse-splicing fitness came to 0.113. As for GUGCCUUGCGCCGGGAAACCACGCAAGGGAUGGUGUCAAAUUCGGCGAAACCUAAGCGCCCGCCCGGGCGUAUGGCAACGCAGAGCCAAGCUUCGGCGCCUGCGCCGAUGAAGGUGUAGAGACUAGACGGCACCCACCUAAGGCCAACGUUAUGGUGAAGGCAUAGUCGAGGGAGCGGCGAAAGUCACACAAACCGG [C82A A145C C150U C169G U176C], the figure is 0.0113; as for GUGCCUUGCGCCGGGAAACCACGCAAGGGAUGGUGUCAAAUUCGGCGAAACCUAAGCGCCCGCCCGGGCGUAUGGCAACGCAGAGCCAAGCUUCGGCGCCUGCGCCGAUGAAGGUGUAGAGACUAGACGGCACCCACCUAAGGCCAACGUUAUGGUGAAGGCAUAGUCGAGGGAGGGGCGAAAGUCACACAAACCGG [C82A A145C C150U C169G U176G], 0.00628. As for GUGCCUUGCGCCGGGAAACCACGCAAGGGAUGGUGUCAAAUUCGGCGAAACCUAAGCGCCCGCCCGGGCGUAUGGCAACGCAGAGCCAAGCUUCGGCGCCUGCGCCGAUGAAGGUGUAGAGACUAGACGGCACCCACCUAAGGCCAACGUUAUGGUGAAGGCAUAGUCGAGGGAGAGGCGAAAGUCACACAAACCGG [C82A A145C C150U C169G U176A], the figure is 0.0196. Take GUGCCUUGCGCCGGGAAACCACGCAAGGGAUGGUGUCAAAUUCGGCGAAACCUAAGCGCCCGCCCGGGCGUAUGGCAACGCAGAGCCAAGCUUCGGCGCCUGCGCCGAUGAAGGUGUAGAGACUAGACGGCACCCACCUAAGGCCAACGCUAUGGUGAAGGCAUAGUCGAGGGAGUGGCGAAAGUCACACAAACCGG [C82A A145C C169G]: the reverse-splicing fitness is 0.0105.

Regarding GUGCCUUGCGCCGGGAAACCACGCAAGGGAUGGUGUCAAAUUCGGCGAAACCUAAGCGCCCGCCCGGGCGUAUGGCAACGCAGAGCCAAGCUUCGGCGCCUGCGCCGAUGAAGGUGUAGAGACUAGACGGCACCCACCUAAGGCCAACGCUAUGGUGAAGGCAUAGUCAAGGGAGUGGCGAAAGUCACACAAACCGG [C82A A145C C169A], the reverse-splicing fitness was determined as 0.00701.

As for GUGCCUUGCGCCGGGAAACCACGCAAGGGAUGGUGUCAAAUUCGGCGAAACCUAAGCGCCCGCCCGGGCGUAUGGCAACGCAGAGCCAAGCUUCGGCGCCUGCGCCGAUGAAGGUGUAGAGACUAGACGGCACCCACCUAAGGCCAACGUUAUGGUGAAGGCAUAGUCAAGGGAGAGGCGAAAGUCACACAAACCGG [C82A A145C C150U C169A U176A], the reverse-splicing fitness is 0.0106.

Turning to GUGCCUUGCGCCGGGAAACCACGCAAGGGAUGGUGUCAAAUUCGGCGAAACCUAAGCGCCCGCCCGGGCGUAUGGCAACGCAGAGCCAAGCUUCGGCGCCUGCGCCGAUGAAGGUGUAGAGACUAGACGGCACCCACCUAAGGCCAACGUUAUGGUGAAGGCAUAGUCAAGGGAGGGGCGAAAGUCACACAAACCGG [C82A A145C C150U C169A U176G], the reverse-splicing fitness was found to be 0.00598. As for GUGCCUUGCGCCGGGAAACCACGCAAGGGAUGGUGUCAAAUUCGGCGAAACCUAAGCGCCCGCCCGGGCGUAUGGCAACGCAGAGCCAAGCUUCGGCGCCUGCGCCGAUGAAGGUGUAGAGACUAGACGGCACCCACCUAAGGCCAACGUUAUGGUGAAGGCAUAGUCAAGGGAGCGGCGAAAGUCACACAAACCGG [C82A A145C C150U C169A U176C], the reverse-splicing fitness worked out at 0.00606.

As for GUGCCUUGCGCCGGGAAACCACGCAAGGGAUGGUGUCAAAUUCGGCGAAACCUAAGCGCCCGCCCGGGCGUAUGGCAACGCAGAGCCAAGCUUCGGCGCCUGCGCCGAUGAAGGUGUAGAGACUAGACGGCACCCACCUAAGGCCAACGGUAUGGUGAAGGCAUAGUCUAGGGAGUGGCGAAAGUCACACAAACCGG [C82A A145C C150G C169U], the reverse-splicing fitness worked out at 0.00817.
